Our source for the MFI values is patent US20200040059A1.

Test [1] has as its target CD112R (human) (UniProt Q6DKI7). Description: flow cytometry, cells expressing target, 25 nM. (Flow cytometry measures light scatter and fluorescence of single cells or particles in a stream.)
Test [2] concerns the target T1, CD226 (human) (UniProt Q15762).
T1 sequence: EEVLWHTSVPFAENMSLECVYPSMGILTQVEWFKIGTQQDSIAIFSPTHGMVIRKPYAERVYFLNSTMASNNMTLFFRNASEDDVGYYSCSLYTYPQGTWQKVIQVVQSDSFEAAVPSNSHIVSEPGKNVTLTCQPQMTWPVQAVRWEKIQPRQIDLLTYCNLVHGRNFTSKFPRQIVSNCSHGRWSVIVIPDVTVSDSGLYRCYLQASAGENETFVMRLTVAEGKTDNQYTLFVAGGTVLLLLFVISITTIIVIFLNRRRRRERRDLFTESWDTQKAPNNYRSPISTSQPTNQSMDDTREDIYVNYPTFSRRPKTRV
Description: flow cytometry, cells expressing target, 25 nM.

The target in test [3] is T2, TIGIT (human) (UniProt Q495A1).
T2 sequence: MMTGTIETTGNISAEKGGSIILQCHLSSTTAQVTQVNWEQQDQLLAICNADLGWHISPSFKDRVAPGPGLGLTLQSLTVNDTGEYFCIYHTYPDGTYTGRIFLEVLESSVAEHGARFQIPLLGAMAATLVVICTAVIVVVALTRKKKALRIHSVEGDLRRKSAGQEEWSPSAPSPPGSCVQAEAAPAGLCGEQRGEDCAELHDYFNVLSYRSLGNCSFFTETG
The test can be described thus: flow cytometry, cells expressing target, 25 nM.

The target of test [4] is T3, CD96 (UniProt P40200).
T3 sequence (looked up): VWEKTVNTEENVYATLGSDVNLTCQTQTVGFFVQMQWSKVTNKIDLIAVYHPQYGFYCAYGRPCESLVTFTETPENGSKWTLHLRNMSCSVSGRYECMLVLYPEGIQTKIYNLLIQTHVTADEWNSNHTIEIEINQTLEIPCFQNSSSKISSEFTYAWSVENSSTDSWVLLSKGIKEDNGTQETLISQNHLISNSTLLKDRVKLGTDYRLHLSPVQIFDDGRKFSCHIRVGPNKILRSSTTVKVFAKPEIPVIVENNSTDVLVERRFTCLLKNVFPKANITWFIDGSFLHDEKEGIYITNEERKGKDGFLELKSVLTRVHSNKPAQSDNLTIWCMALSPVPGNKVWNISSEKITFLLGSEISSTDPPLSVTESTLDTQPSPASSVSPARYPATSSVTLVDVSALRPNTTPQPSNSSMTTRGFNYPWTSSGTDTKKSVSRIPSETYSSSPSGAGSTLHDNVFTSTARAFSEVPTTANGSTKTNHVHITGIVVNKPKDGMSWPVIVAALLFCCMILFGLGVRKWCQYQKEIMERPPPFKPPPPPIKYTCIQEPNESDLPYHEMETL
Description: flow cytometry, cells expressing target, 25 nM.

The target of test [5] is PD-L1 (human) (UniProt Q9NZQ7). Description: flow cytometry on HEK293 cells transfected with PD-L1.
Chain of PD-L1 (human) (Q9NZQ7 19-290 limits assumed): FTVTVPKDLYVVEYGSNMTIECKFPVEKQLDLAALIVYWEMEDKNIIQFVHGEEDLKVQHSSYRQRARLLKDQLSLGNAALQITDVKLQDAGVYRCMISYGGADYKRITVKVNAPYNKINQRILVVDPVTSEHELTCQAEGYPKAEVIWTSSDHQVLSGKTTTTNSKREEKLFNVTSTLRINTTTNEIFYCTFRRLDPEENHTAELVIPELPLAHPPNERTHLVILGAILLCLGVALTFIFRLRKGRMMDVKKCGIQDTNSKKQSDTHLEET
The target in test [6] is CD28 (human) (UniProt P10747). The test can be described thus: flow cytometry on HEK293 cells transfected with CD28.
Test [7] has as its target CD80 (Homo sapiens (Human)) (UniProt P33681). Description: flow cytometry, cells expressing CD80.
For test [8], the target named is PD-1 (Homo sapiens (Human)) (UniProt Q15116). Description: flow cytometry, cells expressing PD-1.

Chain of CD112R (human) (Q6DKI7 whole entry): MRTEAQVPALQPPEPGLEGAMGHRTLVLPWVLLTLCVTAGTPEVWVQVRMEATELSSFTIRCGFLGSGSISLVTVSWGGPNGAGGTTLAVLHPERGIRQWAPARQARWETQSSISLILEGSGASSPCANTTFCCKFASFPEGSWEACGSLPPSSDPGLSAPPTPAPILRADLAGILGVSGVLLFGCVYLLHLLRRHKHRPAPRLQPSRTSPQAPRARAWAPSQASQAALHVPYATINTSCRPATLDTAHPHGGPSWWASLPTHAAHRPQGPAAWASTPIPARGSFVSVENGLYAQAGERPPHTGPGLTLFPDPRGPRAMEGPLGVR

Consider “CD155 variant IgV-Fc P18F, E51V, S54G, Q60R, L79Q, E82G, S87T, M90I, F91S, G92R, T107M (from UniProt P15151 24-139) (Fc fusion)”, for which the MFI at 25 nM in test [1] was determined as 1010 MFI; in test [2], 15700 MFI; in test [3], 46100 MFI; in test [4], 61800 MFI.
For “CD155 variant IgV-Fc P18T, T39S, S52P, S54R, L79P, F91S, T107M (from UniProt P15151 24-139) (Fc fusion)”, in that order: 1040 MFI, 744 MFI, 45900 MFI and 1220 MFI.
In the case of “CD80 IgV-Fc V22I/L70M/A71D (from UniProt P33681 35-141) (Fc fusion)”, the MFI at 22.2 nM in test [5] stood at 33400 MFI. Further, in test [6], the MFI at 66.6 nM came out at 22800 MFI.
With Fc Control, the MFI at 20 nM in test [7] worked out at 132; in test [8], 59.
“variant PD-L1 ECD-Fc G15A, I36T, V129D, R195G (from UniProt Q9NZQ7 19-238) (Fc fusion)” gave an MFI at 20 nM in test [8] of 125.
On to “variant PD-L1 ECD-Fc Y10F, M18V, S99G, Q138R, T203A (from UniProt Q9NZQ7 19-238) (Fc fusion)”, for which the results for the MFI at 20 nM in test [7] and in test [8] were 412 and 70, respectively.
Consider “CD155 variant IgV-Fc V10G, P18T, L72Q, L79P, F91S, T107M (from UniProt P15151 24-139) (Fc fusion)”, for which the MFI at 25 nM in test [1] was 863 MFI; in test [3] it was 4250 MFI; in test [4], 3640 MFI.
Consider “CD155 variant IgV-Fc V10F, T15S, P18L, R48Q, L79P, F91S, T107M, V115M (from UniProt P15151 24-139) (Fc fusion)”, for which the MFI at 25 nM in test [1] amounted to 901 MFI; in test [2], 792 MFI; in test [3] it was 1170 MFI; in test [4], 998 MFI.
Consider “variant PD-L1 ECD-Fc G15A, I36T, V129D (from UniProt Q9NZQ7 19-238) (Fc fusion)”, for which the MFI at 20 nM was determined as 136 in test [7] and 114 in test [8].
On the same counts, the results for CTLA4-Fc (Fc fusion) are 200000 and 59.
Regarding “CD155 variant IgV-Fc V9I, P18F, A47E, G50S, E68G, L79P, F91S, T107M (from UniProt P15151 24-139) (Fc fusion)”, the MFI at 25 nM in test [1] stood at 752 MFI; in test [2], 54300 MFI; in test [3], 55200 MFI; in test [4], 102000 MFI.
“variant PD-L1 ECD-Fc I36T, M97L, Q155H, F193S, N201Y (Fc fusion)”: the results for the MFI at 20 nM in test [7] and in test [8] were 1250 and 69, respectively.
In the case of “CD155 variant IgV-Fc P18T, G19D, M36T, S54N, L79P, L83Q, F91S, T107M, F108Y (from UniProt P15151 24-139) (Fc fusion)”, the MFI at 25 nM is 1280 MFI in test [1], 748 MFI in test [2], 905 MFI in test [3] and 726 MFI in test [4].
Consider “CD155 variant IgV-Fc P18S, H59N, V75A, L79P, A81T, F91S, L104M, T107M (from UniProt P15151 24-139) (Fc fusion)”, for which the MFI at 25 nM in test [1] was 915 MFI; in test [2], 676 MFI; in test [3], 800 MFI; in test [4], 759 MFI.
Turning to “CD80 IgV-Fc E35D/T57I/L70Q/A71D (from UniProt P33681 35-141) (Fc fusion)”, the MFI at 22.2 nM in test [5] came to 2420 MFI. In test [6], this substance had an MFI at 66.6 nM of 21300 MFI.
“variant PD-L1 ECD-Fc I36T, M97L, A103V, Q155H (from UniProt Q9NZQ7 19-238) (Fc fusion)”: the MFI at 20 nM in test [7] was found to be 128; in test [8], 120.
For “variant PD-L1 ECD-Fc I36T, I83T, M97L, K144E, P198T (Fc fusion)”, the values for the MFI at 20 nM in test [7] and in test [8] were 6220 and 62, respectively.
“variant PD-L1 ECD-Fc M18V, M97L, F193S, R195G, E200K, H202Q (from UniProt Q9NZQ7 19-238) (Fc fusion)”: the MFI at 20 nM in test [8] was 69.
In the case of “CD155 variant IgV-Fc V9A, P18S, M36T, S65G, L79P, F91S, L104T, G111R, S112I (from UniProt P15151 24-139) (Fc fusion)”, the figures for the MFI at 25 nM in test [1], in test [2] and in test [3] were 886 MFI, 989 MFI and 92500 MFI, respectively.
Take “CD155 variant IgV-Fc P18T, W46C, H49R, S65A, S67V, A76T, L79P, S87T, L104M (from UniProt P15151 24-139) (Fc fusion)”: the MFI at 25 nM in test [1] amounted to 803 MFI; in test [2], 640 MFI; in test [3] it was 918 MFI; in test [4], 717 MFI.
“CD155 variant IgV-Fc D8G, V9I, V11A, P18T, T26M, S52P, L79P, F91S, G92A, T107L, V115A (from UniProt P15151 24-139) (Fc fusion)”: the results for the MFI at 25 nM in test [1], in test [3] and in test [4] were 817 MFI, 52500 MFI and 97800 MFI, respectively.
The substance “CD80 IgV-Fc P51A/A71D (from UniProt P33681 35-141) (Fc fusion)” showed an MFI at 22.2 nM in test [5] of 5530 MFI. In addition, the MFI at 66.6 nM in test [6] came to 4260 MFI.
Take “CD155 variant IgV-Fc V11A, P18F, D23A, L79P, G80D, V95A, T107M (from UniProt P15151 24-139) (Fc fusion)”: the MFI at 25 nM in test [1] was 830 MFI; in test [2], 913 MFI; in test [3] it was 45200 MFI; in test [4], 33900 MFI.
As to “CD155 variant IgV-Fc P18F, H40Q, T61K, Q62K, L79P, F91S, L104M, T107V (from UniProt P15151 24-139) (Fc fusion)”, the MFI at 25 nM was 918 MFI in test [1], 853 MFI in test [2] and 108000 MFI in test [3].
Turning to “CD155 variant IgV-Fc V9L, V11M, P18S, N35S, S54G, Q62K, L79P, L104M, T107M, V115M (from UniProt P15151 24-139) (Fc fusion)”, the MFI at 25 nM in test [1] turned out to be 893 MFI; in test [2], 2320 MFI; in test [3] it was 3000 MFI; in test [4] it was 925 MFI.
For “CD155 variant IgV-Fc P18S, K70R, L79P, F91S, G111R (from UniProt P15151 24-139) (Fc fusion)”, in that order: 854 MFI, 793 MFI, 16200 MFI and 1180 MFI.
Regarding “CD155 variant IgV-Fc P18T, M55L, T61R, L79P, F91S, V106I, T107M (from UniProt P15151 24-139) (Fc fusion)”, the MFI at 25 nM in test [1] is 827 MFI; in test [2], 1910 MFI; in test [3], 133000 MFI; in test [4] it was 57900 MFI.
Turning to “variant PD-L1 ECD-Fc M18I, I36T, E53G, M97L, K144E, E199G, V207A (from UniProt Q9NZQ7 19-238) (Fc fusion)”, the results for the MFI at 20 nM in test [7] and in test [8] were 47400 and 104, respectively.
On the same counts, the results for “variant PD-L1 ECD-Fc I36S, M41K, M97L, K144Q, R195G, E200K, H202Q, L206F (Fc fusion)” are 68700 and 3500.
Turning to “variant PD-L1 ECD-Fc K28I, S99G (Fc fusion)”, the values for the MFI at 20 nM in test [7] and in test [8] were 693 and 830, respectively.
On the same counts, the results for “variant PD-L1 ECD-Fc L35P, I36S, M97L, K111E (from UniProt Q9NZQ7 19-238) (Fc fusion)” are 155 and 190.
In test [8], “variant PD-L1 ECD-Fc G15A, I36T, M97L, K111E, H202Q (from UniProt Q9NZQ7 19-238) (Fc fusion)” showed an MFI at 20 nM of 112.
